Data reported in patent US20060216303A1.

B1: murine-human chimeric BrE-3 antibody (antibody, V domains shown)
VH: EVKLEESGGGLVQPGGSMKLSCAASGFTFSDAWMDWVRQSPEKGLEWVAEIRNKANNHATYYDESVKGRFTISRDDSKSRVYLQMISLRAEDTGLYYCTGEFANWGQGTLVTVSA
VL: DVVMTQTPLSLPVSLGDQASISCRSSQNLVHNNGNTYLYWFLQKSGQSPKLLIYRASIRFSGVPDRFSGSGSETDFTLKISRVEAEDLGVYFCFQGTHVPWTFGGGTKLEIK
B2: murine BrE-3 monoclonal antibody (antibody, V domains shown)
VH: B1 VH
VL: B1 VL

Molecular target: bacterial fusion protein 11-2 (a hybrid of b-galactosidase and human mammary mucin) (human) (UniProt P15941)
Experiment: reciprocal of the competitor concentration giving 50% binding; competition radioimmunoassay on 11-2 fusion protein

Binder | Ka
B1 | 2.68e+08 M⁻¹
B2 | 3.75e+08 M⁻¹
